Test results: patent US20230088461A1

What was measured:
[1] = biological target: cynomolgus monkey GPC3 on SK-HEP-1-cmGPC3 cells (cynomolgus monkey); test: flow cytometry on SK-HEP-1-cmGPC3 cells, PE anti-mouse IgG Fc
[2] = biological target: human GPC3 on SK-HEP-1-huGPC3 cells (human) (UniProt P51654); test: flow cytometry on SK-HEP-1-huGPC3 cells, PE anti-mouse IgG Fc
[3] = biological target: mouse GPC3 on SK-HEP-1-muGPC3 cells (mouse) (UniProt Q8CFZ4); test: flow cytometry on SK-HEP-1-muGPC3 cells, PE anti-mouse IgG Fc
Chain of mouse GPC3 on SK-HEP-1-muGPC3 cells (mouse) (Q8CFZ4 25-553 limits assumed): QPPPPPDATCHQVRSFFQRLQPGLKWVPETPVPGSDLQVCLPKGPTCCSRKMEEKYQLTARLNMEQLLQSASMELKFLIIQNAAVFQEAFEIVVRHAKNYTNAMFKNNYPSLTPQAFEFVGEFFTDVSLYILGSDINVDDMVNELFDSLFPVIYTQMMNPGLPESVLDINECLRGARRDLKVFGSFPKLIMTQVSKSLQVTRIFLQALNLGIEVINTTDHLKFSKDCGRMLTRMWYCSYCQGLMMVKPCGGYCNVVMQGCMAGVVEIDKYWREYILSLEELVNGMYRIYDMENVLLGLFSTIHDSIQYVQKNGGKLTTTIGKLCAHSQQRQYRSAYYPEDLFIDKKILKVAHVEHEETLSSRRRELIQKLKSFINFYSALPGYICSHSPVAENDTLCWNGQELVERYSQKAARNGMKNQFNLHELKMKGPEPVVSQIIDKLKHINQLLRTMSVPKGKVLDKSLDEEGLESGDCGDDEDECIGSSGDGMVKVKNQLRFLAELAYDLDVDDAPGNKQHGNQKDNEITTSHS

Substance ISOTYPE (antibody) has a Positive population, % [1] of 0.43%, a Positive population, % [2] of 0.85% and a Positive population, % [3] of 0.91%.
